# Measured values reported in article PMC12170943.
# Tested on: OmpRAc (phosphorylated by EnvZAcC) (Acidovorax citrulli xjL12 (group II))
# Experiment: MST
# Conditions: EMSA: 10 mM Tris-HCl pH 7.4, 50 mM KCl, 50 mM MgCl2, 5% glycerol, room temperature 20 min, 50 ng probe in 20 uL, MST: 50 mM Tris-HCl pH 7.4, 150 mM NaCl
substance,measurement,value
PhrpG Cy5 probe (MST),Kd,5.72 µM
